We go through three molecules from publication PMC3861103.

Data set [1] deals with T1, 6xHis-MBP-NHR-25 DBD (unmodified) (Caenorhabditis elegans, UniProt Q19345 1-173).
T1 sequence: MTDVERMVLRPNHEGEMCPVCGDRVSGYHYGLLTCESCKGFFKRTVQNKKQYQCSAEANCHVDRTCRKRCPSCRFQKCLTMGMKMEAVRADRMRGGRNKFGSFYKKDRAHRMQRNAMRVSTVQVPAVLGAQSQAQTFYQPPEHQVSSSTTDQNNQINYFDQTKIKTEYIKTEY
Nature of the data set: EMSA; 500 nM protein, 1 uM DNA; 50 mM Tris pH 8.0, 150 mM NaCl, 10 mM MgCl2, 10 mM DTT, 10 mM ATP, 400 ug/ml BSA, 1 uM dsDNA, 500 nM protein (200-700 nM titration), room temperature 30 min; 4-20% TBE gel, SYBR Gold. As to conditions: protein: recombinant, tags: N-terminal 6xHis-MBP. A general note: Mobility shift assays separate free from complexed probe on a gel.

The target of data set [2] is T1, 6xHis-MBP-NHR-25 DBD (unmodified). The data set is described as follows: EMSA; 1 uM DNA; 50 mM Tris pH 8.0, 150 mM NaCl, 10 mM MgCl2, 10 mM DTT, 10 mM ATP, 400 ug/ml BSA, 1 uM dsDNA, 500 nM protein (200-700 nM titration), room temperature 30 min; 4-20% TBE gel, SYBR Gold. As to conditions: protein: recombinant; tags: N-terminal 6xHis-MBP; blunt.

B1: MIS WT (dsDNA)
DNA 1: GATCCGCCAGGCACTGTCCCCCAAGGTCACCTTTGGTGTTGATAAGATCCC
DNA 2: TCGAGGGATCTTATCAACACCAAAGGTGACCTTGGGGGACAGTGCCTGGCG
In the case of B1, the binding result in data set [1] (5' overhangs 4 nt on both strands) is reported as “binds”.

B2: CYP11A1 (dsDNA)
DNA 1: ACATTTTATCAGCTTCTGGTATGGCCTTGAGCTGGTAGTTATAATCTTGGC
DNA 2: GCCAAGATTATAACTACCAGCTCAAGGCCATACCAGAAGCTGATAAAATGT
Regarding B2, the binding result in data set [1] (blunt) was “binds”.

B3: 2xNR5RE WT (dsDNA)
DNA 1: CTAAAGGGAGCCAAGGTCATAGCGGCCAGTCAAGGCCAAGGGCGACAG
DNA 2: CTGTCGCCCTTGGCCTTGACTGGCCGCTATGACCTTGGCTCCCTTTAG
In the case of B3, the binding result in data set [2] is listed as “binds”.
